Laboratory results reported in publication PMC5016554.

Target: growth hormone secretagogue receptor (GHSR) (mouse (endogenous in pancreatic delta cells)) (UniProt Q99P50)
Sequence of UniProt Q99P50 (Q99P50 whole entry, stated change not applied): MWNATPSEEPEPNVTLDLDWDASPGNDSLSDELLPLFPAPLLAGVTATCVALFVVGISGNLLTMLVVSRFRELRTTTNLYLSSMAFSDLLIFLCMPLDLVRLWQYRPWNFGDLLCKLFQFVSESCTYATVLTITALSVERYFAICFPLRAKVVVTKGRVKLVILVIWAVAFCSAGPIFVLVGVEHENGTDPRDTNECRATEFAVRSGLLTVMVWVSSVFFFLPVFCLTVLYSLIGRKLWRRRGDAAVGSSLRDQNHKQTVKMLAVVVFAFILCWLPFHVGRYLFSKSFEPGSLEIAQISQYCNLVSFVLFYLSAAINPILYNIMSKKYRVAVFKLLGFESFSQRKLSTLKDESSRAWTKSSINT

Substance: Mouse ghrelin (peptide)
- SST release from perfused mouse pancreas at 12 mmol/l glucose, 1 and 100 nmol/l ghrelin, fold increase: 2.7 fold
